In the supplement of paper PMC10567573:

B1: PLAGL1 (parent)
chain: DPNKMAFGCEECGKKYNTMLGYKR
B2: ZNF207 (parent)
chain: FPSAGQAQAAVQGPVGTDFKPLNS

Variants of: B1
Test: protein stability index of a GFP-peptide fusion (GPS, HEK-293T) (PSI 1-6); higher = more stable
Settings: c terminus: a fixed tail appended
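Further: lentivirally expressed fusions sorted by FACS into six bins by GFP to DsRed ratio, PSI derived from sequencing read proportions per bin multiplied by bin number.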

Protein stability index, by site and new letter:
T18: Q 3.04 | V 1.42 | R 2.6 | S 2.39 | P 2.78 | N 2.3 | Y 1.87
G21: R 2.94 | D 3.13 | C 3.09 | F 1.85 | K 3.15 | H 2.56 | V 1.81 | T 2.08 | W 1.95 | I 2.26 | M 2.06 | Y 2.06 | P 2.64 | N 2.55 | E 3.33 | S 2.87 | A 3.01 | Q 2.48
Y22: E 3.26 | S 3.47 | N 2.78 | I 2.8 | P 2.02 | V 2.94 | G 3.07 | D 3.5 | K 3.72 | T 2.24 | W 2.9 | L 3.15 | M 3.01 | F 1.92 | Q 2.72 | C 3.69 | R 3.33 | H 2.18 | A 2.53
K23: I 2.95 | D 2.81 | L 2.73 | A 1.98 | W 1.35 | S 2.17 | E 2.15 | G 2.21 | H 1.98 | T 2.34 | C 2.21 | M 1.58 | V 1.79 | Y 2.22 | F 2.03 | R 2.35 | N 2.42 | P 2.31
R24: Y 2.61 | W 1.86 | E 4.57 | N 3.27 | D 3.65 | S 3.3 | P 2.87 | T 2.93 | M 2.78 | K 4.02 | G 2.74 | F 2.42 | C 2.58 | Q 3.34 | V 2.52 | I 2.05 | H 3.66 | L 2.05 | A 3.02
L20: A 2.23 | W 2.73 | K 3.26 | Q 2.33 | M 2.72 | P 3.11 | I 2.54 | F 2.18 | S 2.59 | R 3.46 | V 2.7 | N 2.26 | G 2.46 | C 2.59 | Y 2.1 | E 3.51 | D 2.82 | H 3.08
M19: N 2.37 | H 1.32 | K 3.55 | I 2.25 | Y 2.49 | G 2.64 | A 3.16 | P 2.27 | T 2.74 | S 2.83 | E 2.32 | R 2.99 | F 1.9 | C 2.57 | Q 2.94 | L 2.82 | V 2.14 | W 2.11

Variants of: B2
Test: as above
Settings: c terminus: a fixed tail appended

Protein stability index, by site and new letter:
P2: A 3.46 | E 4.71 | W 3.65 | D 4.73 | T 2.17 | F 3.33 | H 2.26 | R 4.43 | S 3.16 | K 4.27 | G 4.14 | M 3.93 | I 2.89 | C 2.7 | V 1.97 | N 4.11 | Y 3.47 | Q 3.81 | L 3.41
F1: T 5.3 | W 4.75 | H 4.89 | L 5.03 | Q 5.11 | D 5.56 | R 5.18 | M 4.96 | I 4.79 | G 4.88 | E 4.98 | K 4.65 | A 5.04 | S 5.11 | Y 3.29 | P 4.82 | C 4.68 | N 4.98 | V 4.92
S3: F 3.03 | E 3.93 | K 3.17 | C 2.61 | A 3.17 | H 3.35 | G 3.75 | I 4.35 | D 4.27 | N 3.08 | M 3.43 | L 4.05
